Measurements: publication PMC9352680, “A comprehensive thermodynamic model for RNA binding by the Saccharomyces cerevisiae Pumilio protein PUF4”

Biological target: T1, PUF4 RNA-binding domain (Saccharomyces cerevisiae, UniProt P25339 537-888)
T1 sequence: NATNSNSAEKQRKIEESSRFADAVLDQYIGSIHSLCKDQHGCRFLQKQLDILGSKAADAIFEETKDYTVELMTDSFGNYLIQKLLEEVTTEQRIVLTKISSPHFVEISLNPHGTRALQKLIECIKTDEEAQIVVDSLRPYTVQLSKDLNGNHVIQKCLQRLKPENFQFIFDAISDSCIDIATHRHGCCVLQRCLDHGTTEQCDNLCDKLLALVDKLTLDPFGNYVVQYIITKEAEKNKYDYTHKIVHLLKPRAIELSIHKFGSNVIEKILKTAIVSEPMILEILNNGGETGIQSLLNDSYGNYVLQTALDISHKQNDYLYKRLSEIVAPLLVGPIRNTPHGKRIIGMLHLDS
Assay: Mg; RNA-MaP; 20 mM Na-HEPES pH 7.4, 30 mM KOAc, 0.75 mM MgCl2, 0.1% Tween-20, 5% glycerol, 0.1 mg/mL BSA, 2 mM DTT; 25 C; 0.0125-409.6 nM protein
Conditions: tags: N-His6-TEV cleaved; C-SNAP kept, Cy3B-labelled; label: tethered on chip by stalled RNA polymerase

UCUCUUUAUUGUAAAUAUAUCUCUU (ssRNA) [Id_iii_S1_P3E.8_K3.4_C3.3_[C-2A]_H3.1_A3.2_F3.1_T3.2]
Kd: 18.2 nM

UCUCUUUCUACACUAUACAUCUCUU (ssRNA) [Id_iii_S1_P3E.7_K3.3_C3.3_H3.3_A3.1_F3.1_T3.2_[T9C]]
Kd: 2260 nM

UCUCUUUCUUAUAUAUUAAUUCUCUU (ssRNA) [Id_iii_S1_P4E.6_K4.2_C4.3_H4.2_A4.1_F4.1_T4.2_[G10A]]
Kd: 18.1 nM

UCUCUUUCUACACUAUAUUUCUCUU (ssRNA) [Id_iii_S1_P3E.7_K3.3_C3.3_H3.3_A3.1_F3.1_T3.2_[A10T]]
Kd: 2010 nM

UCUCUUUCUUAUAUAUAUGUCUCUU (ssRNA) [Id_iii_S1_P3E.6_K3.2_C3.3_H3.2_A3.1_F3.1_T3.2_[A10G]]
Kd: 755 nM

UCUCUUUCCUGUAAAUAUAUCUCUU (ssRNA) [Id_iii_S1_P3E.8_K3.4_C3.3_[T-1C]_H3.1_A3.2_F3.1_T3.2]
Kd: 11.1 nM

UCUCUUUGUCUAAUUAUCUCUU (ssRNA) [Ib_S1_P5E.1_K5.1_C5.1_H5.1_[A4C]_A5.1_[T6A]_F5.1_T5.1]
Kd: 115 nM

UCUCUUUUUUGUAAAAAUAUCUCUU (ssRNA) [Id_iii_S1_P3E.9_K3.5_C3.3_[C-2T]_H3.1_A3.2_F3.2_T3.2]
Kd: 78.2 nM

UCUCUUUUUUGUAUUUUAGUUCUCUU (ssRNA) [Id_iii_S1_P4E.8_K4.4_C4.3_[C-2T]_H4.1_A4.2_F4.1_T4.2]
Kd: 1.81 nM

UCUCUUUGUGUAAUUAUCUCUU (ssRNA) [Ib_S1_P5E.1_K5.1_C5.1_H5.1_[A4G]_A5.1_[T6A]_F5.1_T5.1]
Kd: 27.5 nM

UCUCUUUUUUAUAUAUUAGUUCUCUU (ssRNA) [Id_iii_S1_P4E.6_K4.2_C4.3_[C-2T]_H4.2_A4.1_F4.1_T4.2]
Kd: 11 nM

UCUCUUUGUACACUAUAUAUCUCUU (ssRNA) [Id_iii_S1_P3E.7_K3.3_C3.3_[C-2G]_H3.3_A3.1_F3.1_T3.2]
Kd: 1.32 nM

UCUCUUUCUUAUAUAUUACUUCUCUU (ssRNA) [Id_iii_S1_P4E.6_K4.2_C4.3_H4.2_A4.1_F4.1_T4.2_[G10C]]
Kd: 15.9 nM

UCUCUUUCGUGUAUAUUAGUUCUCUU (ssRNA) [Id_iii_S1_P4E.5_K4.1_C4.3_[T-1G]_H4.1_A4.1_F4.1_T4.2]
Kd: 0.46 nM

UCUCUUUCGUGUAUUUUAGUUCUCUU (ssRNA) [Id_iii_S1_P4E.8_K4.4_C4.3_[T-1G]_H4.1_A4.2_F4.1_T4.2]
Kd: 1.23 nM

UCUCUUUUUUGUAUAUUAGUUCUCUU (ssRNA) [Id_iii_S1_P4E.5_K4.1_C4.3_[C-2T]_H4.1_A4.1_F4.1_T4.2]
Kd: 0.395 nM

UCUCUUUGUUGUAUUUUAGUUCUCUU (ssRNA) [Id_iii_S1_P4E.8_K4.4_C4.3_[C-2G]_H4.1_A4.2_F4.1_T4.2]
Kd: 2.23 nM

UCUCUUUCAUGUAAAUAUAUCUCUU (ssRNA) [Id_iii_S1_P3E.8_K3.4_C3.3_[T-1A]_H3.1_A3.2_F3.1_T3.2]
Kd: 19.7 nM

UCUCUUUCUUAUAUAUUAUUUCUCUU (ssRNA) [Id_iii_S1_P4E.6_K4.2_C4.3_H4.2_A4.1_F4.1_T4.2_[G10T]]
Kd: 15.1 nM

UCUCUUUCAUGUAUAUUAGUUCUCUU (ssRNA) [Id_iii_S1_P4E.5_K4.1_C4.3_[T-1A]_H4.1_A4.1_F4.1_T4.2]
Kd: 0.332 nM

UCUCUUUAUACACUAUUAGUUCUCUU (ssRNA) [Id_iii_S1_P4E.7_K4.3_C4.3_[C-2A]_H4.3_A4.1_F4.1_T4.2]
Kd: 39.2 nM

UCUCUUACUUGUAAAUAUAUCUCUU (ssRNA) [Id_iii_S1_P3E.8_K3.4_C3.3_[T-3A]_H3.1_A3.2_F3.1_T3.2]
Kd: 25.7 nM

UCUCUUUCUACACUAUUACUUCUCUU (ssRNA) [Id_iii_S1_P4E.7_K4.3_C4.3_H4.3_A4.1_F4.1_T4.2_[G10C]]
Kd: 2190 nM

UCUCUUCCUUGUAUAUUAGUUCUCUU (ssRNA) [Id_iii_S1_P4E.5_K4.1_C4.3_[T-3C]_H4.1_A4.1_F4.1_T4.2]
Kd: 0.347 nM

UCUCUUGCUUGUAAAUAUAUCUCUU (ssRNA) [Id_iii_S1_P3E.8_K3.4_C3.3_[T-3G]_H3.1_A3.2_F3.1_T3.2]
Kd: 20.2 nM

UCUCUUUCUUGUAAAUAUCUCUCUU (ssRNA) [Id_iii_S1_P3E.8_K3.4_C3.3_H3.1_A3.2_F3.1_T3.2_[A10C]]
Kd: 27.6 nM

UCUCUUUGUACACUAUUAGUUCUCUU (ssRNA) [Id_iii_S1_P4E.7_K4.3_C4.3_[C-2G]_H4.3_A4.1_F4.1_T4.2]
Kd: 1.04 nM

UCUCUUUCUUGUAAAUAUGUCUCUU (ssRNA) [Id_iii_S1_P3E.8_K3.4_C3.3_H3.1_A3.2_F3.1_T3.2_[A10G]]
Kd: 28.7 nM

UCUCUUUCAACACUAUAUAUCUCUU (ssRNA) [Id_iii_S1_P3E.7_K3.3_C3.3_[T-1A]_H3.3_A3.1_F3.1_T3.2]
Kd: 1700 nM

UCUCUUUGUUUGAUUAUCUCUU (ssRNA) [Ib_S1_P5E.1_K5.1_C5.1_H5.1_[A4T]_A5.1_[T6G]_F5.1_T5.1]
Kd: 122 nM

UCUCUUUCUACACUAUUAUUUCUCUU (ssRNA) [Id_iii_S1_P4E.7_K4.3_C4.3_H4.3_A4.1_F4.1_T4.2_[G10T]]
Kd: > 2300 nM

UCUCUUUUUACACUAUAUAUCUCUU (ssRNA) [Id_iii_S1_P3E.7_K3.3_C3.3_[C-2T]_H3.3_A3.1_F3.1_T3.2]
Kd: 2050 nM

UCUCUUUCUUGUAUAUUACUUCUCUU (ssRNA) [Id_iii_S1_P4E.5_K4.1_C4.3_H4.1_A4.1_F4.1_T4.2_[G10C]]
Kd: 1.02 nM

UCUCUUUUUACACUAUUAGUUCUCUU (ssRNA) [Id_iii_S1_P4E.7_K4.3_C4.3_[C-2T]_H4.3_A4.1_F4.1_T4.2]
Kd: 1680 nM

UCUCUUUCUUGUAUAUUAUUUCUCUU (ssRNA) [Id_iii_S1_P4E.5_K4.1_C4.3_H4.1_A4.1_F4.1_T4.2_[G10T]]
Kd: 0.649 nM

UCUCUUUAUACACUAUAUAUCUCUU (ssRNA) [Id_iii_S1_P3E.7_K3.3_C3.3_[C-2A]_H3.3_A3.1_F3.1_T3.2]
Kd: 31.6 nM

UCUCUUUCUUAUAUAUACAUCUCUU (ssRNA) [Id_iii_S1_P3E.6_K3.2_C3.3_H3.2_A3.1_F3.1_T3.2_[T9C]]
Kd: 972 nM

UCUCUUACUACACUAUAUAUCUCUU (ssRNA) [Id_iii_S1_P3E.7_K3.3_C3.3_[T-3A]_H3.3_A3.1_F3.1_T3.2]
Kd: 900 nM

UCUCUUUCUUAUAUAUUAGCUCUCUU (ssRNA) [Id_iii_S1_P4E.6_K4.2_C4.3_H4.2_A4.1_F4.1_T4.2_[T11C]]
Kd: 8.45 nM

UCUCUUUGUCUCAUUAUCUCUU (ssRNA) [Ib_S1_P5E.1_K5.1_C5.1_H5.1_[A4C]_A5.1_[T6C]_F5.1_T5.1]
Kd: 35.9 nM

UCUCUUUCUUGUAAAUAAAUCUCUU (ssRNA) [Id_iii_S1_P3E.8_K3.4_C3.3_H3.1_A3.2_F3.1_T3.2_[T9A]]
Kd: 40.2 nM

UCUCUUUUUUGUAAAUAUAUCUCUU (ssRNA) [Id_iii_S1_P3E.8_K3.4_C3.3_[C-2T]_H3.1_A3.2_F3.1_T3.2]
Kd: 17.6 nM

UCUCUUUAUUGUAUAUUAGUUCUCUU (ssRNA) [Id_iii_S1_P4E.5_K4.1_C4.3_[C-2A]_H4.1_A4.1_F4.1_T4.2]
Kd: 0.362 nM

UCUCUUCCUUGUAAAUAUAUCUCUU (ssRNA) [Id_iii_S1_P3E.8_K3.4_C3.3_[T-3C]_H3.1_A3.2_F3.1_T3.2]
Kd: 16.5 nM

UCUCUUUGUUGUAUAUUAGUUCUCUU (ssRNA) [Id_iii_S1_P4E.5_K4.1_C4.3_[C-2G]_H4.1_A4.1_F4.1_T4.2]
Kd: 0.332 nM

UCUCUUUCAUGUAUUUUAGUUCUCUU (ssRNA) [Id_iii_S1_P4E.8_K4.4_C4.3_[T-1A]_H4.1_A4.2_F4.1_T4.2]
Kd: 1.37 nM

UCUCUUUCGUGUAAAUAUAUCUCUU (ssRNA) [Id_iii_S1_P3E.8_K3.4_C3.3_[T-1G]_H3.1_A3.2_F3.1_T3.2]
Kd: 18.6 nM

UCUCUUUCUACACUAUUAAUUCUCUU (ssRNA) [Id_iii_S1_P4E.7_K4.3_C4.3_H4.3_A4.1_F4.1_T4.2_[G10A]]
Kd: > 2300 nM
